T1: BoNT/B binding domain (HC), yeast displayed (Clostridium botulinum, UniProt P10844 858-1291)
T1 sequence: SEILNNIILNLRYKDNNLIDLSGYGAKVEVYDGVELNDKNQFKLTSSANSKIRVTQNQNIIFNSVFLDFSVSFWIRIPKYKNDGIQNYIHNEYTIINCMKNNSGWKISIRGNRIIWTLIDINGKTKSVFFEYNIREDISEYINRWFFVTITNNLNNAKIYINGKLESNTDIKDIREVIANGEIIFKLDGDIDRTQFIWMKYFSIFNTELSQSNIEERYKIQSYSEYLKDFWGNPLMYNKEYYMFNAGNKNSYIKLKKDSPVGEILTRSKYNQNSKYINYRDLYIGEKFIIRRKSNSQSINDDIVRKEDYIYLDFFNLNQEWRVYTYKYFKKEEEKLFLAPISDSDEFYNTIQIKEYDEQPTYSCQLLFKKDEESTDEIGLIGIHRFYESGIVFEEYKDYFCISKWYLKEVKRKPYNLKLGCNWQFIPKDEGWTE

T2: BoNT/B translocation domain (HN), yeast displayed (Clostridium botulinum, UniProt P10844 442-857)
T2 sequence: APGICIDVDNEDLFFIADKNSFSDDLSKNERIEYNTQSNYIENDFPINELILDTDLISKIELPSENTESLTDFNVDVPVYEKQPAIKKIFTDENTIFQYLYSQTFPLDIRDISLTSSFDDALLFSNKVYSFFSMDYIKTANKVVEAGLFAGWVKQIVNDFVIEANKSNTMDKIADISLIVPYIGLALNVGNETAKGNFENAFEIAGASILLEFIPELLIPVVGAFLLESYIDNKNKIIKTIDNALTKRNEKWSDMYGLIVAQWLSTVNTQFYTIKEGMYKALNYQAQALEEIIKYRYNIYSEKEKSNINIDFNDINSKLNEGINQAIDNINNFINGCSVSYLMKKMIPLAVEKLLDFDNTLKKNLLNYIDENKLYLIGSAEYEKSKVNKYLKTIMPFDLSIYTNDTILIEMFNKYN

T3: BoNT/B light chain (LC), yeast displayed (Clostridium botulinum, UniProt P10844 1-441)
T3 sequence: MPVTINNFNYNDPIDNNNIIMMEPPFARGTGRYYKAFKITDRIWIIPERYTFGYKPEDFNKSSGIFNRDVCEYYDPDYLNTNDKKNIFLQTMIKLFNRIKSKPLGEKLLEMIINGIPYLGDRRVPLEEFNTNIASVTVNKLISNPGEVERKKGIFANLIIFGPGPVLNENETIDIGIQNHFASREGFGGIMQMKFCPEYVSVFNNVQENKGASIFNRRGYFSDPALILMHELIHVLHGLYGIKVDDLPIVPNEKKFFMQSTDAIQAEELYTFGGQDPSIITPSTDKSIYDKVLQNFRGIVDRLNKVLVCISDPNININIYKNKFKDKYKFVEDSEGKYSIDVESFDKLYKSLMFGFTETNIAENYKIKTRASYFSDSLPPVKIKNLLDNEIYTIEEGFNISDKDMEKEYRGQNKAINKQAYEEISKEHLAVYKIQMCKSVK

B1: 2B30 scFv (scFv)
scFv: EVQLVESGGGVVQPGRSLRLSCAASGFTFRRNAIHWVRQAPGKGLEWVAVISYDGVNKYYAASVKGRFAISRDNAKNTLFLQMNSLRPEDSAIYYCARDVSEYGDYVGHFDYWGQGTLVTVSSGGGGSGGGGSGGGGSSYELMQLPSASGTPGQRVSISCSGSSSNIGSNPVNWYQQLPGTAPKLLIYSNNHRPSGVPDRFSGSKSGTSASLAISGLQSEDEADYYCAAWDGSLNGHVVFGGGTKLTVL
B2: 1B18 IgG (antibody, V domains shown)
VH: EVQLVQSGGGLVQPGGSRRLSCAASGFYFNAYWMTWVRQAPGKGLEWVANINLDGTEIYYLDSVKGRFTVSRDNVKNSVFLQMSSLRVEDTAVYFCARLEWGGRNGWVSPWGQGTLVTVSS
VL: DVVMTQSPSSVSASVGDRVTITCRASQSISSYLNWYQQRPGKAPKLLIFAASSLQSAVPSRFSGSGSGTDFTLTISSLQPEDFATYYCQQSYSTPPTFGQGTKVEIKR

Legend:
[1] = molecular target: T1, BoNT/B binding domain (HC), yeast …; assay: soluble scFv or IgG on yeast-displayed BoNT/B domains
[2] = molecular target: T2, BoNT/B translocation domain (HN), yeast …; assay: IgG/Fab on yeast-displayed toxin domain, flow cytometry
[3] = molecular target: T1, BoNT/B binding domain (HC), yeast …; assay: flow cytometry, mAb staining of yeast-displayed BoNT/B domains
[4] = molecular target: T3, BoNT/B light chain (LC), yeast displayed; assay: as above

| Binder | binding result [1] | binding result [2] | binding result [3] | binding result [4] |
| --- | --- | --- | --- | --- |
| B1 | binds |  |  |  |
| B2 |  | binds | no binding | no binding |

From patent US20170096474A1 (published 2017)
